The source of these data is publication PMC8383165.

In this assay the target is GHSR with a TAG amber codon at F71^1.60 and a single reactive cysteine at position 255^6.27, doubly labelled (UniProt Q92847).
Chain of UniProt Q92847 (Q92847 1-70): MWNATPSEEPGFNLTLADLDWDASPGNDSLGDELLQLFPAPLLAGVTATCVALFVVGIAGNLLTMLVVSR

As for LEAP2 (1–12) (peptide), the proximity ratio change from the intramolecular FRET between fluorophores in TM1 and TM6 of GHSR, in lipid nanodiscs with D2R, 10 µM peptide came out at 11.9.

On to LEAP2 (1–14) (peptide), for which the proximity ratio change from the intramolecular FRET between fluorophores in TM1 and TM6 of GHSR, in lipid nanodiscs with D2R came out at 13.3.
